Consider 32 compounds from US20050003347A1, “Domain-exchanged binding molecules, methods of use and methods of production” (priority 2003, published 2005).

The first assay has as its system Mab 2G12 binding to gp120JR-FL. Nature of the assay: Competition ELISA: inhibition of 2G12 binding to gp120JR-FL by carbohydrates. On the set-up: species or system HIV-1. Particulars: 2G12 1 μg/ml. The protocol: Competition enzyme-linked immunosorbent assays (ELISAs) were performed to determine the relative inhibition constants of different carbohydrates on 2G12. GP120JR-FL was first captured onto microtiter plate wells (flat bottom, Costar type 3690; Corning Inc.). Subsequently serial dilutions of Man9GlcNAc2, Manα1-2Man, mannose, and other mono- and disaccharides were added to the wells in the presence of 2G12 (1 μg/ml). Subsequent blocking, washing, and detection steps were performed as described in (13).
Turning to `O=C(CO)[C@@H](O)[C@H](O)[C@H](O)CO` [Fructose], the “inhibition of 2G12 binding to gp120 (in words)” value was “better inhibitor than mannose”.

Staying with this assay, now noted: relative to Manα1-2Man; 2G12 1 μg/ml.
Consider `CC(=O)N[C@H]1[C@H](O[C@H]2[C@H](O)[C@@H](NC(C)=O)C(O)O[C@@H]2CO)O[C@H](CO)[C@@H](O[C@@H]2O[C@H](CO[C@H]3O[C@H](CO[C@H]4O[C@H](CO)[C@@H](O)[C@H](O)[C@@H]4O[C@H]4O[C@H](CO)[C@@H](O)[C@H](O)[C@@H]4O)[C@@H](O)[C@H](O[C@H]4O[C@H](CO)[C@@H](O)[C@H](O)[C@@H]4O[C@H]4O[C@H](CO)[C@@H](O)[C@H](O)[C@@H]4O)[C@@H]3O)[C@@H](O)[C@H](O[C@H]3O[C@H](CO)[C@@H](O)[C@H](O)[C@@H]3O[C@H]3O[C@H](CO)[C@@H](O)[C@H](O)[C@@H]3O[C@H]3O[C@H](CO)[C@@H](O)[C@H](O)[C@@H]3O)[C@@H]2O)[C@@H]1O` (stereo partly drawn) [Man9GlcNAc2], for which the “inhibition of Mab 2G12 binding to gp120JR-FL compared to the disaccharide Manα1-2Man” value was “over 50 fold”.

The assay is the same for the next values; noted with them: relative to mannose; 2G12 1 μg/ml.
`CC(=O)N[C@H]1[C@H](O[C@H]2[C@H](O)[C@@H](NC(C)=O)C(O)O[C@@H]2CO)O[C@H](CO)[C@@H](O[C@@H]2O[C@H](CO[C@H]3O[C@H](CO[C@H]4O[C@H](CO)[C@@H](O)[C@H](O)[C@@H]4O[C@H]4O[C@H](CO)[C@@H](O)[C@H](O)[C@@H]4O)[C@@H](O)[C@H](O[C@H]4O[C@H](CO)[C@@H](O)[C@H](O)[C@@H]4O[C@H]4O[C@H](CO)[C@@H](O)[C@H](O)[C@@H]4O)[C@@H]3O)[C@@H](O)[C@H](O[C@H]3O[C@H](CO)[C@@H](O)[C@H](O)[C@@H]3O[C@H]3O[C@H](CO)[C@@H](O)[C@H](O)[C@@H]3O[C@H]3O[C@H](CO)[C@@H](O)[C@H](O)[C@@H]3O)[C@@H]2O)[C@@H]1O` (stereo partly drawn) [Man9GlcNAc2]: the “inhibition of Mab 2G12 binding to gp120JR-FL compared to mannose (relative IC50)” value was “over 200 fold”.

The target in the next assay is HIV-1 gp120 JR-FL (HIV-1 (JR-FL)). Nature of the assay: ELISA, crude Fab on gp120JR-FL; apparent affinity wt/mutant x100%.
Details: not given
(ELISA stands for enzyme-linked immunosorbent assay.)
In the case of Fab 2G12 mutant H D100bA, the % Affinity Relative to Wild Type was found to be 52%. The same measure, in the same setting: as for Fab 2G12 mutant H D100dA, the figure is 120%; as for Fab 2G12 mutant H E75A, 1.1%; as for Fab 2G12 mutant H E76A, 103%.

For Fab 2G12 mutant H F77A, the % Affinity Relative to Wild Type is 0.1%. Same read-out and setting: in the case of Fab 2G12 mutant H G96A it was 20%; in that of Fab 2G12 mutant H H32A, 0.4%; in that of Fab 2G12 mutant H I19A, 0.5%.

As for Fab 2G12 mutant H K82bA, the % Affinity Relative to Wild Type came to 51%. The same measure, in the same setting: in the case of Fab 2G12 mutant H K95A it was 170%; in that of Fab 2G12 mutant H L74A, 130%.

For the compound Fab 2G12 mutant H L100A, the % Affinity Relative to Wild Type turned out to be 0.1%. As to Fab 2G12 mutant H N100cA, the % Affinity Relative to Wild Type stood at 0.1%. With Fab 2G12 mutant H P113A, the % Affinity Relative to Wild Type came out at 0.1%.

As for Fab 2G12 mutant H P113S, the % Affinity Relative to Wild Type was 0.1%.

For Fab 2G12 mutant H R39A, the % Affinity Relative to Wild Type was 130%. On the same count and under the same terms, in the case of Fab 2G12 mutant H R39Q it was 170%; in that of Fab 2G12 mutant H R57A, 0.1%. On the same count and under the same terms, as for Fab 2G12 mutant H R83A, the figure is 59%; as for Fab 2G12 mutant H S54A, 0.1%.

Turning to Fab 2G12 mutant H S100aA, the % Affinity Relative to Wild Type was 0.1%. Still for that read-out and setting: in the case of Fab 2G12 mutant H T33A it was 2%; in that of Fab 2G12 mutant H T52aA, 190%; in that of Fab 2G12 mutant H T55A, 0.1%. The same measure, in the same setting: as for Fab 2G12 mutant H V84A, the figure is 0.1%; as for Fab 2G12 mutant H Y56A, 2%; as for Fab 2G12 mutant H Y79A, 0.1%. In the case of Fab 2G12 mutant L G93A, the % Affinity Relative to Wild Type was determined as 120%. Fab 2G12 mutant L S28A: the % Affinity Relative to Wild Type is 0.1%. Still for that read-out and setting: as for Fab 2G12 mutant L W32A, the figure is 50%.
